The results in this text go back to the supplement of paper PMC9112550, “Optimization of the antimicrobial peptide Bac7 by deep mutational scanning” (BMC Biology, 2022).
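Further: peptides expressed intracellularly from a pBAD plasmid library in pooled LB shake-flask culture, induced with 0.3% L-arabinose, DNA abundance read by NGS, three biological replicates, DESeq2 with apeglm shrinkage.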

For this series, the system named is Escherichia coli TOP10. The series can be described thus: shrunken log2 fold change of peptide-encoding DNA abundance (4.5 h post-induction vs induction); higher = less antimicrobial activity (less host growth inhibition). To be noted: time post-induction: 4.5 h; library: site-saturation at positions 5, 18, 19, 20.
For the sequence RRIRWRPPRLPRPRPRPHTFPRP, the “shrunken log2 fold change” value is -0.0424.

With RRIRERPPRLPRPRPRPDPVPRP, the “shrunken log2 fold change” value turned out to be 0.181.

RRIRLRPPRLPRPRPRPREHPRP: the “shrunken log2 fold change” value was found to be 0.204.

Consider RRIRCRPPRLPRPRPRPNLFPRP, for which the “shrunken log2 fold change” value was -0.932.

As to RRIRTRPPRLPRPRPRPIHMPRP, the “shrunken log2 fold change” value was -0.171.

Turning to RRIRFRPPRLPRPRPRPGLNPRP, the “shrunken log2 fold change” value is 0.207.

Consider RRIRHRPPRLPRPRPRPQDAPRP, for which the “shrunken log2 fold change” value is -0.00992.

As to RRIRWRPPRLPRPRPRPQQKPRP, the “shrunken log2 fold change” value was -0.0581.

Consider RRIRMRPPRLPRPRPRPLPKPRP, for which the “shrunken log2 fold change” value turned out to be 1.11.

As for RRIRLRPPRLPRPRPRPMGWPRP, the “shrunken log2 fold change” value is 0.203.

Take RRIRQRPPRLPRPRPRPQPAPRP: the “shrunken log2 fold change” value stood at 0.218.

Turning to RRIRIRPPRLPRPRPRPAGIPRP, the “shrunken log2 fold change” value was -0.437.

Take RRIRDRPPRLPRPRPRPFRIPRP: the “shrunken log2 fold change” value stood at 0.0432.

Consider RRIRERPPRLPRPRPRPCLLPRP, for which the “shrunken log2 fold change” value is -0.0977.

Consider RRIRDRPPRLPRPRPRPFMLPRP, for which the “shrunken log2 fold change” value is -0.342.

RRIRWRPPRLPRPRPRPMYEPRP: the “shrunken log2 fold change” value is -0.103.

For the sequence RRIRDRPPRLPRPRPRPPIPPRP, the “shrunken log2 fold change” value was -0.0554.

On to RRIRIRPPRLPRPRPRPGQHPRP, for which the “shrunken log2 fold change” value was -0.0183.

RRIRARPPRLPRPRPRPRSMPRP: the “shrunken log2 fold change” value was found to be 0.42.

As to RRIRPRPPRLPRPRPRPGVHPRP, the “shrunken log2 fold change” value is -0.0724.

For RRIRNRPPRLPRPRPRPYERPRP, the “shrunken log2 fold change” value was 0.0318.

RRIRNRPPRLPRPRPRPEPWPRP: the “shrunken log2 fold change” value was found to be 0.0625.

For the sequence RRIRTRPPRLPRPRPRPKCAPRP, the “shrunken log2 fold change” value was 0.909.

For RRIRSRPPRLPRPRPRPTITPRP, the “shrunken log2 fold change” value was -0.229.

On to RRIRIRPPRLPRPRPRPLFAPRP, for which the “shrunken log2 fold change” value is -0.0892.

Consider RRIRKRPPRLPRPRPRPIVPPRP, for which the “shrunken log2 fold change” value was 0.269.

In the case of RRIRSRPPRLPRPRPRPWCRPRP, the “shrunken log2 fold change” value was -0.398.

RRIRDRPPRLPRPRPRPIFLPRP: the “shrunken log2 fold change” value was -0.205.

For RRIRMRPPRLPRPRPRPKWGPRP, the “shrunken log2 fold change” value was 0.729.

Consider RRIRGRPPRLPRPRPRPGTAPRP, for which the “shrunken log2 fold change” value was 2.14.

For RRIRIRPPRLPRPRPRPQWTPRP, the “shrunken log2 fold change” value is -0.0472.

RRIRPRPPRLPRPRPRPLCRPRP: the “shrunken log2 fold change” value was determined as 0.0255.

On to RRIRIRPPRLPRPRPRPINRPRP, for which the “shrunken log2 fold change” value was -0.312.

Take RRIRDRPPRLPRPRPRPRAVPRP: the “shrunken log2 fold change” value came to 0.764.

On to RRIRKRPPRLPRPRPRPYVYPRP, for which the “shrunken log2 fold change” value is -0.154.

As to RRIRRRPPRLPRPRPRPSREPRP, the “shrunken log2 fold change” value turned out to be 0.962.

Consider RRIRYRPPRLPRPRPRPLCPPRP, for which the “shrunken log2 fold change” value is -0.397.

In the case of RRIRGRPPRLPRPRPRPCEWPRP, the “shrunken log2 fold change” value is -0.01.

Regarding RRIRARPPRLPRPRPRPCNWPRP, the “shrunken log2 fold change” value was -0.0619.

As for RRIRHRPPRLPRPRPRPCNCPRP, the “shrunken log2 fold change” value was 0.0668.

In the case of RRIRWRPPRLPRPRPRPNHYPRP, the “shrunken log2 fold change” value was -0.605.

Consider RRIRKRPPRLPRPRPRPECDPRP, for which the “shrunken log2 fold change” value is 3.35.

With RRIRFRPPRLPRPRPRPATPPRP, the “shrunken log2 fold change” value was 0.315.

Take RRIRVRPPRLPRPRPRPPEGPRP: the “shrunken log2 fold change” value amounted to 0.582.

For the sequence RRIRKRPPRLPRPRPRPQKAPRP, the “shrunken log2 fold change” value was -0.0155.

As for RRIRIRPPRLPRPRPRPCRRPRP, the “shrunken log2 fold change” value is -0.23.

As for RRIRQRPPRLPRPRPRPTMSPRP, the “shrunken log2 fold change” value is 0.0272.

Consider RRIRDRPPRLPRPRPRPNQEPRP, for which the “shrunken log2 fold change” value is -0.0564.

For the sequence RRIRKRPPRLPRPRPRPVTWPRP, the “shrunken log2 fold change” value turned out to be 0.0106.

For RRIRVRPPRLPRPRPRPGPWPRP, the “shrunken log2 fold change” value turned out to be 0.273.

Take RRIRRRPPRLPRPRPRPYKAPRP: the “shrunken log2 fold change” value was -0.108.

Take RRIRSRPPRLPRPRPRPSWQPRP: the “shrunken log2 fold change” value was -0.227.

Regarding RRIRARPPRLPRPRPRPYKTPRP, the “shrunken log2 fold change” value is -0.0275.

On to RRIRMRPPRLPRPRPRPNHHPRP, for which the “shrunken log2 fold change” value is -0.592.

As to RRIRVRPPRLPRPRPRPSVKPRP, the “shrunken log2 fold change” value is -0.155.

Regarding RRIRMRPPRLPRPRPRPEKWPRP, the “shrunken log2 fold change” value is 1.56.

Consider RRIRSRPPRLPRPRPRPQNVPRP, for which the “shrunken log2 fold change” value was -0.209.

RRIRFRPPRLPRPRPRPPPNPRP: the “shrunken log2 fold change” value came to 1.33.

Turning to RRIRTRPPRLPRPRPRPLVMPRP, the “shrunken log2 fold change” value was -0.0423.

For the sequence RRIRPRPPRLPRPRPRPAHAPRP, the “shrunken log2 fold change” value came to 0.236.

Turning to RRIRTRPPRLPRPRPRPDAPPRP, the “shrunken log2 fold change” value came out at 0.215.

Take RRIRLRPPRLPRPRPRPMYVPRP: the “shrunken log2 fold change” value is -0.199.

Turning to RRIRFRPPRLPRPRPRPGFNPRP, the “shrunken log2 fold change” value is -0.22.

Take RRIRWRPPRLPRPRPRPKYWPRP: the “shrunken log2 fold change” value turned out to be 0.0306.

For RRIRTRPPRLPRPRPRPCDWPRP, the “shrunken log2 fold change” value was -0.0538.

Consider RRIRKRPPRLPRPRPRPSNHPRP, for which the “shrunken log2 fold change” value is -0.347.

As for RRIRNRPPRLPRPRPRPDWDPRP, the “shrunken log2 fold change” value was -0.108.

Regarding RRIRYRPPRLPRPRPRPQMIPRP, the “shrunken log2 fold change” value was 0.0722.

Regarding RRIRKRPPRLPRPRPRPTQFPRP, the “shrunken log2 fold change” value amounted to 1.1.

Consider RRIRNRPPRLPRPRPRPAMPPRP, for which the “shrunken log2 fold change” value was found to be 0.236.

In the case of RRIRKRPPRLPRPRPRPQVSPRP, the “shrunken log2 fold change” value is -0.0595.

Take RRIRLRPPRLPRPRPRPVWRPRP: the “shrunken log2 fold change” value stood at 0.299.

As to RRIRWRPPRLPRPRPRPDDDPRP, the “shrunken log2 fold change” value worked out at 3.98.

Regarding RRIRKRPPRLPRPRPRPYCFPRP, the “shrunken log2 fold change” value was -0.258.

As to RRIRNRPPRLPRPRPRPIRRPRP, the “shrunken log2 fold change” value was -0.163.

On to RRIRGRPPRLPRPRPRPCYDPRP, for which the “shrunken log2 fold change” value amounted to 0.156.

With RRIRWRPPRLPRPRPRPAITPRP, the “shrunken log2 fold change” value stood at 0.188.

For the sequence RRIRNRPPRLPRPRPRPKYRPRP, the “shrunken log2 fold change” value was -0.0413.

For the sequence RRIRMRPPRLPRPRPRPNDSPRP, the “shrunken log2 fold change” value is -0.0147.

Consider RRIRPRPPRLPRPRPRPIGHPRP, for which the “shrunken log2 fold change” value was -0.0228.

Consider RRIRMRPPRLPRPRPRPRLEPRP, for which the “shrunken log2 fold change” value was found to be 0.113.

For the sequence RRIRARPPRLPRPRPRPTFEPRP, the “shrunken log2 fold change” value was 0.42.

On to RRIRHRPPRLPRPRPRPAYYPRP, for which the “shrunken log2 fold change” value is -0.624.

On to RRIRYRPPRLPRPRPRPVENPRP, for which the “shrunken log2 fold change” value is -0.0898.

RRIRQRPPRLPRPRPRPHNDPRP: the “shrunken log2 fold change” value was -0.421.

Turning to RRIRLRPPRLPRPRPRPMFVPRP, the “shrunken log2 fold change” value is -0.354.

Turning to RRIRSRPPRLPRPRPRPCHFPRP, the “shrunken log2 fold change” value was -0.186.

RRIRFRPPRLPRPRPRPRLSPRP: the “shrunken log2 fold change” value is -0.194.

For the sequence RRIRNRPPRLPRPRPRPWTHPRP, the “shrunken log2 fold change” value was -0.0174.

For the sequence RRIRQRPPRLPRPRPRPCPAPRP, the “shrunken log2 fold change” value was -0.00924.

Turning to RRIRIRPPRLPRPRPRPIKGPRP, the “shrunken log2 fold change” value was -0.068.
